{"source": "patent US20190224333A1", "about": "(published 2019)", "binders": {"B1": {"name": "H6 (VHH)", "VHH": "QVQLLESGGGLVQPGGSLRLSCAASGDRFTHNDMGWVRQAPGKGLEWVSTIPTTDGSTYYADSVKGRFTISRDNSKSTLYLQMNSLRAEDTAVYYCATGYMWKAPAYVKYWGQGTLVTVSS", "notes": "Human-derived single domain variable fragment (sdFv, VH only) from a phagemid library; Made as soluble sdFv in E. coli HB2151 and purified on protein A; also called clone H6; fibrin-specific sdFv"}}, "biological_target": "T1, fibrin (human, UniProt P02671 36-629; P02675 45-491; P02679 27-437, limits assumed)", "T1 construct": "Thin polymerised fibrin layer made by layer-by-layer deposition of fibrinogen-thrombin-fibrinogen on ELISA plates, SPR chips and interferometry sensors; Human is stated for the purified fibrinogen used in biopanning; also called fibrin layer; fibrin clot", "T1 sequence (looked up) 1": "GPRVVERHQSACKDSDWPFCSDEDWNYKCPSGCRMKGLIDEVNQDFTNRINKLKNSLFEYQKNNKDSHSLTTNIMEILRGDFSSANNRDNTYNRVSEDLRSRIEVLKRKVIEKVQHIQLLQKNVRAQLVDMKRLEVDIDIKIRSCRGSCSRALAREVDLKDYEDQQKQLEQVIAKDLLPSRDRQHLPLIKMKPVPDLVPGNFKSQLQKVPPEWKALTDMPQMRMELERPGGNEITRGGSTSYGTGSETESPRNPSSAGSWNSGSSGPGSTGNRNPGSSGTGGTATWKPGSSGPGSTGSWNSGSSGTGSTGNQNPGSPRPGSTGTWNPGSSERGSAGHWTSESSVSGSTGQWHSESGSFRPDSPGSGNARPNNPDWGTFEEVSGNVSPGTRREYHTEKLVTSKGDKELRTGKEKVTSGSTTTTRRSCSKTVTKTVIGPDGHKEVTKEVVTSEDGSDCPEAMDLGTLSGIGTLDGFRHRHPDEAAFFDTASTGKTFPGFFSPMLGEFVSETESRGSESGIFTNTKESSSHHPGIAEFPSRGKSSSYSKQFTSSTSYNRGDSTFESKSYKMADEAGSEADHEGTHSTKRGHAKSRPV", "T1 sequence (looked up) 2": "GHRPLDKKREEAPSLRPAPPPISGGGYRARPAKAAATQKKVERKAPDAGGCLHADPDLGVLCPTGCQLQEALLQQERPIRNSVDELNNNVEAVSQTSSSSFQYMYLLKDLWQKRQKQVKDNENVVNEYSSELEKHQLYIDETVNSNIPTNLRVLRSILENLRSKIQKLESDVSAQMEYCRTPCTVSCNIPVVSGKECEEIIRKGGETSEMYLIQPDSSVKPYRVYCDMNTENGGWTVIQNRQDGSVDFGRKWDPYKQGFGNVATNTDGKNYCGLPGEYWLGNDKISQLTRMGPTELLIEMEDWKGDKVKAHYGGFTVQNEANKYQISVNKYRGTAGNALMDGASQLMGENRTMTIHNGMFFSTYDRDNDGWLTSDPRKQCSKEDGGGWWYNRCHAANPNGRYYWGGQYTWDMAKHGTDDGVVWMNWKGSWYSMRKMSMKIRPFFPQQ", "T1 sequence (looked up) 3": "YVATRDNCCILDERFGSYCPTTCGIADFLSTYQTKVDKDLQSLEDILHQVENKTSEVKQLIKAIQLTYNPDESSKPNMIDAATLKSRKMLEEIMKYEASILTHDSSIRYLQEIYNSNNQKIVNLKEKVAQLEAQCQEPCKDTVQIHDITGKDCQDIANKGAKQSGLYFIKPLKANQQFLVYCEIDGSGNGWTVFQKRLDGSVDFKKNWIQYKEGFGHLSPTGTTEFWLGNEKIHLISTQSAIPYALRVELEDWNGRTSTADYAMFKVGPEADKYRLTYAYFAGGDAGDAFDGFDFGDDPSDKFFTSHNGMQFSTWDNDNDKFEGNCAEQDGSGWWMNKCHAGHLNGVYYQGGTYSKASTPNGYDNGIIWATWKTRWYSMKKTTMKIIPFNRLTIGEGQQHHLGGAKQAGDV", "assay": "SPR, sdFv flowed over immobilised fibrin layer, 1:1 Langmuir fit", "experimental": "Based on previous SPR protocols developed in the lab⁴, a thin fibrin layer was immobilized on the surface of a gold SPR chip via layer-by-layer deposition of fibrinogen-thrombin-fibrinogen³. SdFvs were flowed across the fibrin surface and the binding interactions were evaluated and recorded. Additionally, antibody fragment binding interactions with a surface of immobilized fibrinogen was used to investigate the specificity to fibrin. All SPR data was examined and analyzed with Scrubber 2 and Clamp XP (Center for Biomolecular Interactions Analysis, University of Utah). Data simulation curves were generated based on a Langmuir 1:1 binding model assuming only a single ligand-analyte interaction.\nThe four most promising clones, based on their selectivity for fibrin over fibrinogen (clones A2, A6, B3 and H6) and a random clone (S11) were then evaluated through SPR analysis (FIGS. 2B-2K). […] Clones H6 and S11 (negative control) were subsequently utilized for creation of PLPs. Interferometry analysis verified that sdFv-microgels maintained their fibrin-binding capabilities (FIG. 3)."}
{"binder": "B1", "values": [{"measurement": "Kd", "value": 199, "unit": "nM"}]}
